Laboratory results taken from patent publication US20220017637A1 (Hoffmann-La Roche, published 2022).
Blank lines part the entries; values can stand above or below the binder they belong to.

Assays:
[1] = biological target: T1, Her2 expressed on the cell surface of the human breast cancer cell line KPL-4 (human, UniProt P04626 23-1255); assay: flow cytometry (MFI PE) on KPL-4 cells; R-PE F(ab')2 goat anti-human IgG Fcgamma secondary
T1 construct: endogenous Her2 of KPL-4 cells stood in the assay; also called ErbB2; human epidermal growth factor receptor-2

[2] = biological target: T2, human CD28 on CHO cells (parental cell line CHO-k1 ATCC #CCL-61, modified to stably overexpress human CD28) (human, UniProt P10747 19-220); assay: flow cytometry (MFI PE) on CHOk1-huCD28 cells; R-PE F(ab')2 goat anti-human IgG Fcgamma secondary
T2 construct: The whole entry (with signal peptide) is named; also called CHOk1-huCD28; CHOk1 huCD28

[3] = biological target: T1, Her2 expressed on the cell surface of …; assay: flow cytometry (MFI PE); panel title on the sheet: Binding to human Her2, KPL4; R-PE F(ab')2 goat anti-human IgG Fcgamma secondary
[4] = biological target: T2, human CD28 on CHO cells (parental cell …); assay: flow cytometry (MFI PE); panel title on the sheet: Binding to human CD28, CHO-k1-huCD28; R-PE F(ab')2 goat anti-human IgG Fcgamma secondary
[5] = biological target: T2, human CD28 on CHO cells (parental cell …); assay: flow cytometry (MFI PE), one-armed IgG from supernatant on CHO-k1 cells stably overexpressing human CD28; PE-conjugated goat anti-human secondary
[6] = biological target: T2, human CD28 on CHO cells (parental cell …); assay: as above; remark: listed apart in the source

binding result [6]: binds
B9: CD28(SA)_variant_31 (antibody, human IgG1, kappa, L234A L235A)
heavy: not shown
light: not shown
chain: DKTHTCPPCPAPEAAGGPSVFLFPPKPKDTLMISRTPEVTCVVVDVSHEDPEVKFNWYVDGVEVHNAKTKPREEQYNSTYRVVSVLTVLHQDWLNGKEYKCKVSNKALGAPIEKTISKAKGQPREPQVCTLPPSRDELTKNQVSLSCAVKGFYPSDIAVEWESNGQPENNYKTTPPVLDSDGSFFLVSKLTVDKSRWQQGNVFSCSVMHEALHNRFTQKSLSLSP
notes: tested from HEK supernatant, unpurified; also called P1AE3087

binding result [6]: binds
B10: CD28(SA)_variant_25 (antibody, human IgG1, kappa, L234A L235A)
heavy: not shown
light: not shown
chain: B9 chain
notes: tested from HEK supernatant, unpurified; also called P1AE3081

binding result [6]: binds
B11: CD28(SA)_variant_27 (antibody, human IgG1, kappa, L234A L235A)
heavy: not shown
light: not shown
chain: B9 chain
notes: tested from HEK supernatant, unpurified; also called P1AE3083

binding result [5]: binds
B12: CD28(SA)_variant_13 (antibody, human IgG1, kappa, L234A L235A)
heavy: not shown
light: not shown
chain: B9 chain
notes: tested from HEK supernatant, unpurified; also called P1AE3069

binding result [5]: binds
B13: CD28(SA)_variant_17 (antibody, human IgG1, kappa, L234A L235A)
heavy: not shown
light: not shown
chain: B9 chain
notes: tested from HEK supernatant, unpurified; also called P1AE3073

binding result [6]: binds
B14: CD28(SA)_variant_26 (antibody, human IgG1, kappa, L234A L235A)
heavy: not shown
light: not shown
chain: B9 chain
notes: tested from HEK supernatant, unpurified; also called P1AE3082

The remaining lines, values behind:

B1: Molecule A: Her2 (pertuzumab CLC_WT)-CD28 (SA_Variant 8) 1+1 format (bispecific antibody, human IgG1, kappa, L234A L235A)
heavy 1: not shown
light 1: QVQLVQSGAEVKKPGASVKVSCKASGYTFTSYYIHWVRQAPGQGLEWIGSIYPGNVQTNYNEKFKDRATLTVDTSISTAYMELSRLRSDDTAVYFCTRSHYGLDFNFDVWGQGTTVTVSSASVAAPSVFIFPPSDEQLKSGTASVVCLLNNFYPREAKVQWKVDNALQSGNSQESVTEQDSKDSTYSLSSTLTLSKADYEKHKVYACEVTHQGLSSPVTKSFNRGEC
heavy 2: not shown
light 2: DIQMTQSPSSLSASVGDRVTITCKASQDVSTAVAWYQQKPGKAPKLLIYSASFRYTGVPSRFSGSRSGTDFTLTISSLQPEDFATYYCQQHYTTPPTFGQGTKVEIKRTVAAPSVFIFPPSDRKLKSGTASVVCLLNNFYPREAKVQWKVDNALQSGNSQESVTEQDSKDSTYSLSSTLTLSKADYEKHKVYACEVTHQGLSSPVTKSFNRGEC
notes: only the Fc knob chain carries PG-LALA; also called P1AF6741; Her2-CD28 (P1AF6741)
EC50 (read off the curve) [1]: 6 to 7 nM | binding result [2]: binds | EC50 (read off the curve) [3]: ~3 nM

B2: Molecule D: Her2 (trastuzumab CLC)-CD28 (SA_variant 8) 1+1 (bispecific antibody, human IgG1, kappa, L234A L235A)
heavy 1: not shown
light 1: B1 light 1
heavy 2: not shown
light 2: B1 light 2
notes: huIgG1 PG-LALA CrossFab: VH/VL exchange in the CD28 Fab (knob), charged modifications in the Her2 Fab (hole); also called P1AF8338
EC50 (read off the curve) [3]: ~3 nM | binding result [4]: binds

B3: Molecule B: Her2 (pertuzumab CLC)-CD28 (SA_Variant 8) 1+1 format (bispecific antibody, human IgG1, kappa, L234A L235A)
heavy 1: not shown
light 1: B1 light 1
heavy 2: EVQLVESGGGLVQPGGSLRLSCAASGFTFNDYTMDWVRQAPGKGLEWVADVNPNSGGSIVNRRFKGRFTLSVDRSKNTLYLQMNSLRAEDTAVYYCARNLGPFFYFDYWGQGTLVTVSSASTKGPSVFPLAPSSKSTSGGTAALGCLVEDYFPEPVTVSWNSGALTSGVHTFPAVLQSSGLYSLSSVVTVPSSSLGTQTYICNVNHKPSNTKVDEKVEPKSCDKTHTCPPCPAPEAAGGPSVFLFPPKPKDTLMISRTPEVTCVVVDVSHEDPEVKFNWYVDGVEVHNAKTKPREEQYNSTYRVVSVLTVLHQDWLNGKEYKCKVSNKALGAPIEKTISKAKGQPREPQVCTLPPSRDELTKNQVSLSCAVKGFYPSDIAVEWESNGQPENNYKTTPPVLDSDGSFFLVSKLTVDKSRWQQGNVFSCSVMHEALHNHYTQKSLSLSP
light 2: B1 light 2
notes: huIgG1 PG-LALA CrossFab: VH/VL exchange in the CD28 Fab (knob), charged modifications in the Her2 Fab (hole); also called P1AF8305
EC50 (read off the curve) [3]: ~3 nM | binding result [4]: binds

B4: CD28(SA)_variant_15 (antibody, human IgG1, kappa, L234A L235A)
heavy: not shown
light: not shown
chain: B9 chain
notes: tested from HEK supernatant, unpurified; also called P1AE3071
binding result [5]: binds

B5: CD28(SA)_variant_12 (antibody, human IgG1, kappa, L234A L235A)
heavy: not shown
light: DIQMTQSPSSLSASVGDRVTITCRASQNIYVWLNWYQQKPGKAPKLLIYKASNLYSGVPSRFSGSRSGTDFTLTISSLQPEDFATYYCQQGQTYPYTFGQGTKLEIKRTVAAPSVFIFPPSDRKLKSGTASVVCLLNNFYPREAKVQWKVDNALQSGNSQESVTEQDSKDSTYSLSSTLTLSKADYEKHKVYACEVTHQGLSSPVTKSFNRGEC
chain: B9 chain
notes: tested from HEK supernatant, unpurified; also called P1AE3068
binding result [5]: binds

B6: CD28(SA)_variant_29 (antibody, human IgG1, kappa, L234A L235A)
heavy: not shown
light: not shown
chain: B9 chain
notes: tested from HEK supernatant, unpurified; also called P1AE3085
binding result [6]: binds

B7: CD28(SA)_variant_30 (antibody, human IgG1, kappa, L234A L235A)
heavy: not shown
light: B5 light
chain: B9 chain
notes: tested from HEK supernatant, unpurified; also called P1AE3086
binding result [6]: binds

B8: CD28(SA)_variant_16 (antibody, human IgG1, kappa, L234A L235A)
heavy: not shown
light: not shown
chain: B9 chain
notes: tested from HEK supernatant, unpurified; also called P1AE3072
binding result [5]: binds
